# Assay results published in the Immune Epitope Database (IEDB).
# Key:
# HLA-A*02:12 [1] = experiment: IEDB peptide-MHC binding, purified MHC/competitive/fluorescence; filed as Kd, often an IC50 or EC50 that approximates it; ≥ and ≤ were set here for values at or beyond the usual limits of such assays; details: source organism: Vibrio cholerae 2740-80
# HLA-B*46:01 [2] = experiment: as above
# HLA-A*68:02 [3] = experiment: as above; details: source organism: Vibrio cholerae 2740-80
# HLA-A*03:01 [4] = experiment: as above; details: source organism: Vibrio cholerae 2740-80
# HLA-B*18:01 [5] = experiment: as above
# HLA-B*51:01 = experiment: as above
# HLA-A*02:19 [6] = experiment: as above; details: source organism: Vibrio cholerae 2740-80
# HLA-A*26:01 [7] = experiment: as above
# HLA-B*27:03 = experiment: as above
# HLA-B*39:01 = experiment: as above
# HLA-B*58:01 [8] = experiment: IEDB peptide-MHC binding, purified MHC/competitive/radioactivity; filed as Kd, often an IC50 or EC50 that approximates it; ≥ and ≤ were set here for values at or beyond the usual limits of such assays
# HLA-B*57:01 [9] = experiment: as above
# HLA-B*57:01 [10] = experiment: IEDB peptide-MHC binding, purified MHC/direct/fluorescence; filed as Kd, often an IC50 or EC50 that approximates it; ≥ and ≤ were set here for values at or beyond the usual limits of such assays
# HLA-B*58:01 [11] = experiment: IEDB peptide-MHC binding, purified MHC/competitive/fluorescence; filed as Kd, often an IC50 or EC50 that approximates it; ≥ and ≤ were set here for values at or beyond the usual limits of such assays
# HLA-A*01:01 [12] = experiment: IEDB peptide-MHC binding, purified MHC/competitive/radioactivity; filed as Kd, often an IC50 or EC50 that approximates it; ≥ and ≤ were set here for values at or beyond the usual limits of such assays; details: source organism: Dengue virus 2 Jamaica/1409/1983
# HLA-A*30:02 = experiment: as above; details: source organism: Dengue virus 2 Jamaica/1409/1983
# HLA-A*26:01 [13] = experiment: as above; details: source organism: Dengue virus 2 Jamaica/1409/1983
# HLA-A*31:01 [14] = experiment: IEDB peptide-MHC binding, purified MHC/direct/fluorescence; filed as Kd, often an IC50 or EC50 that approximates it; ≥ and ≤ were set here for values at or beyond the usual limits of such assays; details: source organism: Shigella sonnei Ss046
# HLA-B*58:01 [15] = experiment: as above; details: source organism: Shigella sonnei Ss046
# HLA-B*46:01 [16] = experiment: as above; details: source organism: Shigella sonnei Ss046
# HLA-A*68:02 [17] = experiment: as above
# HLA-A*03:01 [18] = experiment: as above
# HLA-B*18:01 [19] = experiment: as above; details: source organism: Shigella sonnei Ss046
# HLA-A*02:01 [20] = experiment: as above; details: source organism: Shigella sonnei Ss046
# HLA-B*40:01 = experiment: as above; details: source organism: Shigella sonnei Ss046
# HLA-B*48:01 = experiment: as above; details: source organism: Shigella sonnei Ss046
# HLA-B*07:02 = experiment: as above; details: source organism: Shigella sonnei Ss046
# HLA-B*27:05 = experiment: as above; details: source organism: Shigella sonnei Ss046
# HLA-B*15:17 [21] = experiment: as above; details: source organism: Shigella sonnei Ss046
# HLA-A*11:01 = experiment: as above; details: source organism: Shigella sonnei Ss046
# HLA-B*15:01 [22] = experiment: as above; details: source organism: Shigella sonnei Ss046
# HLA-A*01:01 [23] = experiment: IEDB peptide-MHC binding, purified MHC/competitive/fluorescence; filed as Kd, often an IC50 or EC50 that approximates it; ≥ and ≤ were set here for values at or beyond the usual limits of such assays; details: source organism: Paraglaciecola sp. T6c
# HLA-A*01:01 [24] = experiment: IEDB peptide-MHC binding, purified MHC/direct/fluorescence; filed as Kd, often an IC50 or EC50 that approximates it; ≥ and ≤ were set here for values at or beyond the usual limits of such assays; details: source organism: Reston ebolavirus - Reston
# HLA-C*05:01 = experiment: as above
# HLA-A*02:01 [25] = experiment: IEDB peptide-MHC binding, purified MHC/competitive/fluorescence; filed as Kd, often an IC50 or EC50 that approximates it; ≥ and ≤ were set here for values at or beyond the usual limits of such assays
# HLA-B*57:01 [26] = experiment: as above; details: source organism: Reston ebolavirus - Reston (1989)
# HLA-B*15:17 [27] = experiment: as above; details: source organism: Reston ebolavirus - Reston (1989)
# HLA-B*15:01 [28] = experiment: as above
# HLA-A*31:01 [29] = experiment: IEDB peptide-MHC binding, purified MHC/competitive/radioactivity; filed as Kd, often an IC50 or EC50 that approximates it; ≥ and ≤ were set here for values at or beyond the usual limits of such assays; details: source organism: Dengue virus 3 Martinique/1243/1999
# HLA-A*32:01 = experiment: as above
# HLA-A*02:12 [30] = experiment: IEDB peptide-MHC binding, purified MHC/direct/fluorescence; filed as Kd, often an IC50 or EC50 that approximates it; ≥ and ≤ were set here for values at or beyond the usual limits of such assays; details: source organism: Choclo virus
# HLA-A*02:19 [31] = experiment: as above; details: source organism: Choclo virus
# HLA-A*02:16 = experiment: as above; details: source organism: Choclo virus
# HLA-A*69:01 = experiment: IEDB peptide-MHC binding, purified MHC/competitive/fluorescence; filed as Kd, often an IC50 or EC50 that approximates it; ≥ and ≤ were set here for values at or beyond the usual limits of such assays; details: source organism: Orthohantavirus sinnombreense
# [32] = source organism: Vibrio cholerae 2740-80
# [33] = source organism: Dengue virus 3 Martinique/1243/1999
# [34] = source organism: Francisella tularensis subsp. tularensis FSC198
# [35] = source organism: Dengue virus 2 Jamaica/1409/1983
# [36] = source organism: Shigella sonnei Ss046
# [37] = source organism: Dengue virus 1 Singapore/S275/1990
# [38] = source organism: Reston ebolavirus - Reston (1989)
# [39] = source organism: Dengue virus 1 Brazil/97-11/1997
# [40] = source organism: Orthohantavirus sinnombreense
sequence,measurement,setting,value
KQLPPLAAW,Kd,HLA-A*02:12 [1],≥ 20000 nM
same,Kd,HLA-B*46:01 [2]; [32],≥ 20000 nM
same,Kd,HLA-A*68:02 [3],≥ 20000 nM
same,Kd,HLA-A*03:01 [4],≥ 20000 nM
same,Kd,HLA-B*18:01 [5]; [32],6330 nM
same,Kd,HLA-B*51:01; [32],≥ 20000 nM
same,Kd,HLA-A*02:19 [6],≥ 20000 nM
same,Kd,HLA-A*26:01 [7]; [32],≥ 20000 nM
same,Kd,HLA-B*27:03; [32],≥ 20000 nM
same,Kd,HLA-B*39:01; [32],≥ 20000 nM
NASDRMGMGV,Kd,HLA-B*58:01 [8]; [33],209 nM
same,Kd,HLA-B*57:01 [9]; [33],722 nM
ISTHIGFSF,Kd,HLA-B*57:01 [10]; source organism: Francisella tularensis subsp. holarctica LVS,125 nM
same,Kd,HLA-B*58:01 [11]; [34],1.5 nM
same,Kd,HLA-B*46:01 [2]; [34],≥ 20000 nM
ITASILLWY,Kd,HLA-B*58:01 [8]; [35],2.8 nM
same,Kd,HLA-A*01:01 [12],47.2 nM
same,Kd,HLA-A*30:02,550 nM
same,Kd,HLA-A*26:01 [13],5.66 nM
GVLIGGLEW,Kd,HLA-B*58:01 [11]; source organism: Influenza A virus (A/parakeet/Narita/92A/98(H9N2)),552 nM
VLDMGDPVK,Kd,HLA-A*31:01 [14],≥ 20000 nM
same,Kd,HLA-B*58:01 [15],≥ 20000 nM
same,Kd,HLA-B*46:01 [16],≥ 20000 nM
same,Kd,HLA-A*68:02 [17]; [36],≥ 20000 nM
same,Kd,HLA-A*03:01 [18]; [36],2090 nM
same,Kd,HLA-B*18:01 [19],≥ 20000 nM
same,Kd,HLA-A*02:01 [20],≥ 20000 nM
same,Kd,HLA-B*40:01,≥ 20000 nM
same,Kd,HLA-B*57:01 [10]; [36],≥ 20000 nM
same,Kd,HLA-B*48:01,≥ 20000 nM
same,Kd,HLA-B*07:02,≥ 20000 nM
same,Kd,HLA-B*27:05,≥ 20000 nM
same,Kd,HLA-B*15:17 [21],≥ 20000 nM
same,Kd,HLA-A*11:01,7000 nM
same,Kd,HLA-B*15:01 [22],≥ 20000 nM
same,Kd,HLA-A*01:01 [23],2590 nM
VSSVNMISRM,Kd,HLA-B*58:01 [8]; [35],698 nM
same,Kd,HLA-B*57:01 [9]; [35],626 nM
LSAAIGKAW,Kd,HLA-B*58:01 [8]; [37],2.92 nM
same,Kd,HLA-B*57:01 [9]; [37],1.9 nM
KSLIISFAF,Kd,HLA-B*58:01 [11]; source organism: Bacillus anthracis str. A0488,391 nM
FSDLCNFLI,Kd,HLA-A*01:01 [24],153 nM
same,Kd,HLA-C*05:01; [38],9 nM
same,Kd,HLA-B*46:01 [2]; [38],≥ 20000 nM
same,Kd,HLA-B*18:01 [5]; [38],≥ 20000 nM
same,Kd,HLA-A*02:01 [25]; [38],≥ 20000 nM
same,Kd,HLA-B*51:01; [38],≥ 20000 nM
same,Kd,HLA-B*57:01 [26],≥ 20000 nM
same,Kd,HLA-B*15:17 [27],≥ 20000 nM
same,Kd,HLA-A*26:01 [7]; [38],≥ 20000 nM
same,Kd,HLA-B*27:03; [38],≥ 20000 nM
same,Kd,HLA-B*15:01 [28]; [38],≥ 20000 nM
same,Kd,HLA-B*39:01; [38],≥ 20000 nM
RAQDPPPEL,Kd,HLA-C*05:01; source organism: Homo sapiens,663 nM
AASAAQRRGR,Kd,HLA-A*31:01 [29],165 nM
same,Kd,HLA-B*58:01 [8]; [33],18.7 nM
QSSITEAELT,Kd,HLA-B*58:01 [8]; [35],436 nM
same,Kd,HLA-B*57:01 [9]; [35],351 nM
KSWPLNEGI,Kd,HLA-B*58:01 [8]; [39],70.3 nM
same,Kd,HLA-A*32:01; [39],340 nM
KTVWFVPSI,Kd,HLA-B*58:01 [8]; [35],4.32 nM
same,Kd,HLA-A*32:01; [35],6.69 nM
GSFRKICGF,Kd,HLA-A*02:12 [30],≥ 20000 nM
same,Kd,HLA-A*68:02 [17]; source organism: Choclo virus,≥ 20000 nM
same,Kd,HLA-A*03:01 [18]; source organism: Choclo virus,≥ 20000 nM
same,Kd,HLA-A*02:19 [31],≥ 20000 nM
same,Kd,HLA-A*02:16,≥ 20000 nM
same,Kd,HLA-A*69:01,≥ 20000 nM
same,Kd,HLA-B*58:01 [11]; [40],251 nM
same,Kd,HLA-B*46:01 [2]; [40],≥ 20000 nM
same,Kd,HLA-B*18:01 [5]; [40],≥ 20000 nM
same,Kd,HLA-A*02:01 [25]; [40],≥ 20000 nM
same,Kd,HLA-B*51:01; [40],≥ 20000 nM
same,Kd,HLA-A*26:01 [7]; [40],≥ 20000 nM
same,Kd,HLA-B*27:03; [40],≥ 20000 nM
same,Kd,HLA-B*15:01 [28]; [40],≥ 20000 nM
same,Kd,HLA-B*39:01; [40],≥ 20000 nM
ATLLVWHTW,Kd,HLA-B*58:01 [8]; [33],1.69 nM
same,Kd,HLA-B*57:01 [9]; [33],2.1 nM
same,Kd,HLA-A*32:01; [33],2.68 nM
